{
  "source": "patent US6800467B1",
  "about": "“Polypeptides having aminopeptidase activity and nucleic acids encoding same” (Novozymes Biotech, Inc., priority 1997, dated 2004)",
  "molecules": {"B1": {"name": "aminopeptidase II: Recombinant Aspergillus oryzae 1568 (ATCC 20386) aminopeptidase II, 496 amino acids (SEQ ID NO:2), produced in Aspergillus oryzae or Fusarium (protein)", "chain": "MRSLLWASLLSGVLAGRALVSPDEFPEDIQLEDLLEGSQQLEDFAYAYPERNRVFGGKAHDDTVNYLYEELKKTGYYDVYKQPQVHLWSNADQTLKVGDEEIEAKTMTYSPSVEVTADVAVVKNLGCSEADYPSDVEGKVALIKRGECPFGDKSVLAAKAKAAASIVYNNVAGSMAGTLGAAQSDKGPYSAIVGISLEDGQKLIKLAEAGSVSVDLWVDSKQENRTTYNVVAQTKGGDPNNVVALGGHTDSVEAGPGINDDGSGIISNLVIAKALTQYSVKNAVRFLFWTAEEFGLLGSNYYVSHLNATELNKIRLYLNFDMIASPNYALMIYDGDGSAFNQSGPAGSAQIEKLFEDYYDSIDLPHIPTQFDGRSDYEAFILNGIPSGGLFTGAEGIMSEENASRWGGQAGVAYDANYHAAGDNMTNLNHEAFLINSKATAFAVATYANDLSSIPKRNTTSSLHRRARTMRPFGKRAPKTHAHVSGSGCWHSQVEA"}},
  "format_in_all_cases": "biochemical",
  "key": {"[1]": {"assay": "Kinetic parameters of aminopeptidase II for p-nitroanilides at pH 7.0 and 25° C.", "settings": "pH 7.0, 25° C.", "description": "The purified aminopeptidase II described in Example 11 was used in the following characterization.\nKinetic parameters of the aminopeptidase II were determined for several p-nitroanilides (pNA) including Leu-pNA, Gly-pNA, Ala-pNA, and Pro-pNA (Sigma Chemical Co., St. Louis, Mo., or Bachem, Torrance, Calif.). Stock solutions of 100 mg of each p-nitroanilide per ml of dimethylsulfoxide were diluted with 50 mM potassium phosphate pH 7.0 buffer to concentrations ranging from 0.0064 to 9.56 mM. […] The reaction of the aminopeptidase II with the p-nitroanilide was initiated when a 100 μl aliquot of the enzyme solution in 50 mM potassium phosphate pH 7.0 was added to 100 μl of a substrate solution in a microtiter plate well and monitored at 405 nm and 25° C. using a THERMOmax Microplate Reader (Molecular Devices Corp., Sunnyvale, Calif.)."}, "[2]": {"assay": "Temperature stability of the aminopeptidase II, residual activity on Leu-pNA", "description": "The temperature stability of the aminopeptidase II was determined using the following protocol: 480 μl of 50 mM sodium phosphate buffer pH 7.5 was preincubated at 37°, 45°, 55°, 60°, 65°, 70°, and 75° C. for 30 minutes in a 1.7 ml Eppendorf tube. Then 20 μl of purified aminopeptidase II was added and the sample was then incubated for an additional 20 minutes. The samples were then placed on ice. Once the incubations were completed for all the temperatures, the samples were then assayed for activity using Leu-pNA as substrate.\nThe assay was performed by mixing 100 μl of the incubation mixtures for the various temperatures with 100 μl of 2 mg/ml Leu-pNA in 50 mM sodium phosphate pH 7.5 buffer at ambient temperature. The absorbance at 405 nm was monitored for 5 minutes."}, "[3]": {"test_system": "soy bean meal tablets", "assay": "Degree of hydrolysis (DH) assay, soy", "settings": "vs 3 LAPUs FLAVOURZYME alone, 50° C., 18 hours", "description": "(§1) The purified aminopeptidase II described in Example 11 was tested in degree of hydrolysis assays using soy, wheat gluten, and casein as substrates according to the following procedure.\n(§2) The degree of hydrolysis (DH) assays were performed at 50° C. for 18 hours as a mini-hydrolysis on a 10 ml scale using soy bean meal tablets, wheat gluten meal tablets, and sodium-caseinate at a 2% concentration adjusted to pH 7, if necessary, with no pH adjustment during hydrolysis. The hydrolysates were inactivated at 85° C. for 3 minutes in a waterbath. The enzymes used were FLAVOURZYME™ and aminopeptidase II. The enzymes were dosed as follows. […] Upon hydrolysis, p-nitroanilide is liberated turning the solution yellow which is monitored 405 nm.\n(§3) The degree of hydrolysis (DH), as defined as described by Adler-Nissen (1986, Enzymic Hydrolysis of Food Proteins, Elsevier Applied Science Publishers), was determined by reaction of the supernatant with OPA (ortho-phtaldialdehyde, Sigma Chemical Co., St. Louis, Mo.) according to the following procedure The hydrolysate was diluted 100-fold into distilled water. […] The solution was then shaken well and after 2 minutes exactly, the absorbance at 340 nm was measured and compared to the absorbance of a 0.95 mM L-serine (distilled water) solution after subtraction of the blank value (water reacted with OPA reagent). […]"}, "[4]": {"test_system": "gelatin", "assay": "Degree of hydrolysis (DH) assay, gelatin"}, "[5]": {"test_system": "sodium-caseinate", "assay": "Degree of hydrolysis (DH) assay, casein", "settings": "vs 3 LAPUs FLAVOURZYME alone", "description": "as §1, §2, §3"}, "[6]": {"settings": "substrate Ala-pNA, enzyme of Example 11"}, "[7]": {"settings": "substrate Gly-pNA, enzyme of Example 11"}, "[8]": {"settings": "substrate Pro-pNA, enzyme of Example 11"}, "[9]": {"settings": "2 LAPUs aminopeptidase II added to 3 LAPUs FLAVOURZYME"}},
  "data": [
    {"molecule": "B1", "values": [
      {"measurement": "Km", "setting": "[1]; [6]", "value": 11, "unit": "mM"},
      {"measurement": "Vmax", "setting": "[1]; [6]", "value": 1200, "unit": "relative units"},
      {"measurement": "Km", "setting": "[1]; [7]", "value": 0.3, "unit": "mM"},
      {"measurement": "Vmax", "setting": "[1]; [7]", "value": 1670, "unit": "relative units"},
      {"measurement": "Vmax", "setting": "[1]; substrate Leu-pNA, enzyme of Example 11", "value": 6400, "unit": "relative units"},
      {"measurement": "Km", "setting": "[1]; substrate Leu-pNA, enzyme of Example 11 (produced in Aspergillus)", "value": 7, "unit": "mM"},
      {"measurement": "Km", "setting": "[1]; [8]", "value": 2, "unit": "mM"},
      {"measurement": "Vmax", "setting": "[1]; [8]", "value": 120, "unit": "relative units"},
      {"measurement": "Percent activity relative to 37° C.", "setting": "[2]; 20 minutes at 37° C., pH 7.5, no substrate (reference)", "value": 100},
      {"measurement": "Percent activity relative to 37° C.", "setting": "[2]; 20 minutes at 45° C., pH 7.5, no substrate", "value": 101},
      {"measurement": "Percent activity relative to 37° C.", "setting": "[2]; 20 minutes at 55° C., pH 7.5, no substrate", "value": 99},
      {"measurement": "Percent activity relative to 37° C.", "setting": "[2]; 20 minutes at 60° C., pH 7.5, no substrate", "value": 90},
      {"measurement": "Percent activity relative to 37° C.", "setting": "[2]; 20 minutes at 65° C., pH 7.5, no substrate", "value": 73.7},
      {"measurement": "Percent activity relative to 37° C.", "setting": "[2]; 20 minutes at 70° C., pH 7.5, no substrate", "value": 64.6},
      {"measurement": "Percent activity relative to 37° C.", "setting": "[2]; 20 minutes at 75° C., pH 7.5, no substrate", "value": 46},
      {"measurement": "increase of absolute DH", "setting": "[3]; [9]", "value": "at least 8%"},
      {"measurement": "increase of absolute DH", "setting": "[3]; 5 LAPUs aminopeptidase II added to 3 LAPUs FLAVOURZYME", "value": "≥ 10", "unit": "%"},
      {"measurement": "increase of absolute DH", "setting": "[4]; 2 LAPUs added to 3 LAPUs FLAVOURZYME", "value": 4.9, "unit": "%"},
      {"measurement": "increase of absolute DH", "setting": "[4]; 5 LAPUs added to 3 LAPUs FLAVOURZYME", "value": 5.3, "unit": "%"},
      {"measurement": "increase of absolute DH", "setting": "[5]; 1 LAPU aminopeptidase II added to 3 LAPUs FLAVOURZYME", "value": 7, "unit": "%"},
      {"measurement": "increase of absolute DH", "setting": "[5]; [9]", "value": 9, "unit": "%"}
    ]}
  ]
}
